Measured values from patent US20110142849A1 (IRM, published 2011).

How the values were obtained:
Assay in all cases: specificity ELISA on coated antigen (88 ng per well), antibody at 2 µg/mL, ABS650
hDDR1 = target: T1, hDDR1 (human, UniProt Q08345)
T1 construct: panel antigen of the specificity ELISA
Procedure: (§1) For specificity ELISAs on purified human and mouse IgGs, a 384-well plate was coated with a panel of purified human or mouse antigens at 88 ng per well and incubated overnight at 4° C. The plate was blocked and washed as described above, then 22 μL of purified mouse or human anti-PCSK9 antibody diluted to 2 μg/mL in PBS was added to each well. The plate was incubated for 1 hr at 37° C. then washed with PBST. Anti-mouse Fc antibody (Jackson ImmunoResearch Labs #115-035-071) or anti-human kappa antibody (Sigma #A7164) conjugated to HRP was diluted 1:5000 in PBS (25 μL) and added to each well. The plate was incubated for 1 hr at room temperature, then washed and developed as described above.
(§2) In order to test whether the antigen specificity of the parental mouse antibody LFU720 was retained in the final Humaneered™ IgGs, LGT209, LGT210 and LGT211, binding of the antibodies to a panel of human and mouse antigens (as well as human PCSK9) was tested in an ELISA assay.

hFGFR4 = target: T2, hFGFR4 (human, UniProt P22455)
T2 construct: panel antigen of the specificity ELISA
T2 sequence (antigen, looked up): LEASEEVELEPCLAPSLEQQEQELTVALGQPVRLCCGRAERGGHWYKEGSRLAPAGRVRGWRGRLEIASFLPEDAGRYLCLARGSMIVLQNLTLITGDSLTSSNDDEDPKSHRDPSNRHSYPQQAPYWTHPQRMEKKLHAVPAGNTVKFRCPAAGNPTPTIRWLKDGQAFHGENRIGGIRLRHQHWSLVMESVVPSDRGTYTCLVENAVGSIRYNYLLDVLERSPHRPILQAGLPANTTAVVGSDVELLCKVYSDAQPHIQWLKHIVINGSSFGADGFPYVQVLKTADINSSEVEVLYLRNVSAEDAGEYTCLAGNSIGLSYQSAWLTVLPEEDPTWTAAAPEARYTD
Procedure: as §1, §2

hRspo-2 = target: T3, hRspo-2 (human, UniProt Q6UXX9)
T3 construct: panel antigen of the specificity ELISA
Procedure: as §1, §2

hTrkB = target: T4, hTrkB (human, UniProt Q16620)
T4 construct: panel antigen of the specificity ELISA
Procedure: as §1, §2

hNotch-3 NRR = target: T5, hNotch-3 NRR (human, UniProt Q9UM47)
T5 construct: panel antigen of the specificity ELISA
T5 sequence (antigen, looked up): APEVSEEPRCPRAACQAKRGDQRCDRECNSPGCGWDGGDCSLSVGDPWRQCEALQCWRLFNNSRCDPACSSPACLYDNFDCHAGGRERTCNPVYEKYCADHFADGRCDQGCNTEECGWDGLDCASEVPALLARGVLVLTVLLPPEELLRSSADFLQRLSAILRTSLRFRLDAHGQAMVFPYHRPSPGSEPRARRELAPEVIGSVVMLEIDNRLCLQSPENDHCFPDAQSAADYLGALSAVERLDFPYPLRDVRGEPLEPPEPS
Procedure: as §1, §2

hAgr2 = target: T6, hAgr2 (human, UniProt O95994)
T6 construct: panel antigen of the specificity ELISA
T6 sequence (antigen, looked up): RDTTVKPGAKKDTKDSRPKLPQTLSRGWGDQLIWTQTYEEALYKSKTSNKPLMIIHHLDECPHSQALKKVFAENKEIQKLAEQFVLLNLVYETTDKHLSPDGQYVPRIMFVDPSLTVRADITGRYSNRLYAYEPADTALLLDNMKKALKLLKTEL
Procedure: as §1, §2

hGITR = target: T7, hGITR (human, UniProt Q9Y5U5)
T7 construct: panel antigen of the specificity ELISA
T7 sequence (antigen, looked up): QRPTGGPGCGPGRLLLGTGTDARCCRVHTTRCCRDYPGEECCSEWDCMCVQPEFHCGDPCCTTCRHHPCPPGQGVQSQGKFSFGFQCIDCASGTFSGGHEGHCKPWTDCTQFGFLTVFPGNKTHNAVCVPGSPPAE
Procedure: as §1, §2

hIL-12RB1 = target: T8, hIL-12RB1 (human, UniProt P42701)
T8 construct: panel antigen of the specificity ELISA
Procedure: as §1, §2

Measured: binding result

T1 sequence (Q08345 21-416 limits assumed): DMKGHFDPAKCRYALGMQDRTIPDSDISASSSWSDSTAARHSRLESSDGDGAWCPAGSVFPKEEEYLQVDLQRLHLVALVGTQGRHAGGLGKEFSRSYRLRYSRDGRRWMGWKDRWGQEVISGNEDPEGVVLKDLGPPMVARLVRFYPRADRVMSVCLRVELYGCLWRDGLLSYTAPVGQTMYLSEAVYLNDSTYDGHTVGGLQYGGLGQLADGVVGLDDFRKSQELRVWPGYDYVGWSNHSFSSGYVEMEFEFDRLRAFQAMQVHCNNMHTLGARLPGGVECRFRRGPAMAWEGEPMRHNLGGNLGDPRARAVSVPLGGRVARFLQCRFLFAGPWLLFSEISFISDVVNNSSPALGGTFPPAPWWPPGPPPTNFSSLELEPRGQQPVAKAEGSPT
T3 sequence (Q6UXX9 22-243 limits assumed): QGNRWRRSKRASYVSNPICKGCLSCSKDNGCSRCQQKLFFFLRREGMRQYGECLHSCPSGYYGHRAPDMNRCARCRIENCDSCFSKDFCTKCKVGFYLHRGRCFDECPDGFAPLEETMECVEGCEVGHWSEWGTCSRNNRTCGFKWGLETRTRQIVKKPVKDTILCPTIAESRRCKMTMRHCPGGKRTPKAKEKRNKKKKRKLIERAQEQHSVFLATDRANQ
T4 sequence (Q16620 32-430 limits assumed): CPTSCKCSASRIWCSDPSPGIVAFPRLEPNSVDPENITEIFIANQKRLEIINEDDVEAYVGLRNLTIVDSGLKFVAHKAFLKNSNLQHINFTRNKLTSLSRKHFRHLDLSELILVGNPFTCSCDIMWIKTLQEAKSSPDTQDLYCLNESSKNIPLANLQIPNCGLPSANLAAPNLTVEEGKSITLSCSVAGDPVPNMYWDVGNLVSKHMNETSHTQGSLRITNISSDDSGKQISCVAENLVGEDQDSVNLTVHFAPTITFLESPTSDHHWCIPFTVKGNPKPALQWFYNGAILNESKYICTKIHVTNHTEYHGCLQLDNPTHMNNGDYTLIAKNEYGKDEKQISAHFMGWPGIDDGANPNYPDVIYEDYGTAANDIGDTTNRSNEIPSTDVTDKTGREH

B1: NVP-LGT211 (antibody, human IgG1, V domains shown)
VH: QVQLVQSGAEVKKPGASVKVSCKASGYTFSTMYMSWVRQAPGQGLEWMGRIDPANEHTNYAQKFQGRVTMTRDTSISTAYMELSRLTSDDTAVYYCARSYYYYAMDYWGQGTLVTVSS
VL: QIVLTQSPATLSVSPGERATLSCRASQSVSYMHWYQQKPGQAPRLLIYGVFRRATGIPDRFSGSGSGTDFTLTIGRLEPEDFAVYYCLQWSSDPPTFGQGTKLEIKR
notes: Silent human IgG1 kappa; also called pSR74 (Vh) + pJG10 (Vk); pSR074 + pJG10
no binding (tested: 2 µg/mL): all assays above

B2: NVP-LFU720 (antibody, V domains shown)
VH: EVQLQQSGAELMKPGASVKLSCTASGFNIKDMYMSWVRQRPEQGLEWIGRIDPANGHTNYDPKFQAKATITTDTSSKTAYLHLSSLTSEDTAVYYCARSYYYYAMDYWGQGTSVTVSS
VL: QIVLTQSPAIMSASPGEKVTMTCSASSSVSYMHWYQQKPGSSPRLWIYLTFNLASGVPARFSGSGSGTSYSLSISSMEAEDAATYYCLQWSSDPPTFGSGTKLEIK
notes: Murine anti-human Pcsk9 IgG1-kappa monoclonal antibody from a hybridoma; also called 5P20; NVP-LFU720-AX-1
no binding (tested: 2 µg/mL): all assays above
